For 167 variants, self-cleavage results are on record in the RNAGym collection of RNA variant scans (doi:10.7554/elife.80360).

To fix the notation:
B1: HDV Ribozyme (parent)
chain: GGCCGGCAUGGUCCCAGCCUCCUCGCUGGCGCCGGCUGGGCAACAUUCCGAGGGGACCGUCCCCUCGGUAAUGGCGAAUGGGACCCA

This data set covers variants of B1. Kind of data set: self-cleavage, relative activity (ratio to wild type); higher = more cleavage; co-transcriptional.
Regarding G5A C15G, the self-cleavage is 0.151. With U9G C63G, the self-cleavage is 1.17.

For the variant A42C G68U, the self-cleavage turned out to be 0.128.

For G11C C30G, the self-cleavage is 0. Take C3U G17C: the self-cleavage worked out at 0.0297.

On to U60A, for which the self-cleavage was found to be 1. With A78U A83C, the self-cleavage was determined as 0.324.

Turning to G55U C86G, the self-cleavage amounted to 1.03. To G29A G34U belongs 0.0601; to G17C U20C, 0; to U72G C85G, 0.609.

Turning to A16C C26A, the self-cleavage is 0.831. Regarding U65A C85U, the self-cleavage was determined as 0.791.

As for C48U, the self-cleavage was 1.01. C49G G50A: the self-cleavage worked out at 0.793. To G34U A71C belongs 0.161. Turning to G6C C18A, the self-cleavage was 0.0791. C36U C49G: the self-cleavage was 0.607.

In the case of G17U U79G, the self-cleavage was determined as 0.406. On to G31A G35U, for which the self-cleavage amounted to 0.102. In the case of C66G G68C it was 0.554. Regarding U69C C85U, the self-cleavage was 1.15. C4A C22U: the self-cleavage is 0.148.

Consider G2U A77C, for which the self-cleavage turned out to be 0.0674. In the case of G2C C49A it was 0.0594. On to U20C A77U, for which the self-cleavage is 0.0898.

Consider C61A C62U, for which the self-cleavage is 1.01.

With C21A U60A, the self-cleavage turned out to be 0.0361. For the variant G53A G82A, the self-cleavage is 0.466. In the case of G28C G76A it was 0.106; in that of C26A G80A, 0.544.

For the variant C32G G76A, the self-cleavage amounted to 0.271.

For the variant G67A G81A, the self-cleavage was 0.302.

Regarding G59A C61A, the self-cleavage turned out to be 1.02.

For the variant U12C A71C, the self-cleavage came to 0.0831. In the case of G31U C48G, the self-cleavage is 0.543. For the variant C22U G59C, the self-cleavage came to 0.566.

On to G53U C86A, for which the self-cleavage turned out to be 1.07. G11U G31A: the self-cleavage is 0.179. To C36U C66G belongs 0.767. For C14G G35A, the self-cleavage was determined as 0.199. In the case of A51C A70C it was 1.03; in that of C24A C62G, 0.554; in that of G5A C21G, 0.0811. To G29A G76U belongs 0.428; to C21A U79G, 0.0396; to G54A U65C, 0.696. G53C A83U: the self-cleavage is 0.332.

For A43U C64U, the self-cleavage is 0.588. As to C21G G55U, the self-cleavage is 0.0755. As for U12C A16U, the self-cleavage was determined as 1.05.

Turning to U23A C63U, the self-cleavage turned out to be 0.96. In the case of C24A G40U it was 0.41. Take U37G C61A: the self-cleavage stood at 0.0875.

Regarding C30A C48G, the self-cleavage is 0.467. To C14A C61A belongs 0.878; to C24U C66A, 0.525; to G1C C32A, 0. For the variant G28C U65C, the self-cleavage is 0.101. Turning to G55A G73U, the self-cleavage stood at 0.457. In the case of G2A C32U, the self-cleavage was determined as 0.194. For C32U G54A, the self-cleavage is 0.891. With A16U G76C, the self-cleavage amounted to 0.973.

Turning to U60A G76C, the self-cleavage came out at 0.973. On to G31U G39C, for which the self-cleavage is 0.166. As to G17C U65A, the self-cleavage amounted to 0.353. Turning to A71C U72A, the self-cleavage came to 0.332.

Regarding C44U C64G, the self-cleavage is 0.862. As for G59C A83U, the self-cleavage is 0.469. In the case of G50A G67A, the self-cleavage is 1.17. In the case of C3A G52C it was 0.676. In the case of G28A G81A, the self-cleavage is 0.101. Regarding G35A C75G, the self-cleavage was 0.218. Consider G11A C48A, for which the self-cleavage was 0.506. With G39A G81A, the self-cleavage was 0.0898. To C3U C66A belongs 0.69; to C7A G53A, 0.642; to G1C C4U, 0.0489. On to C44U C84A, for which the self-cleavage amounted to 0.614.

Regarding C22U G73U, the self-cleavage came out at 0.157. In the case of U46C G50A it was 0.698. To G10C U27C belongs 0.942; to C19G C61A, 0.106. For the variant C15A G29A, the self-cleavage was found to be 0.117. Turning to C36G G38A, the self-cleavage is 0.143. In the case of C7G C44U, the self-cleavage turned out to be 0.0462. As for C19U G59C, the self-cleavage is 0.205. Turning to U12G G68U, the self-cleavage amounted to 0.779. With C36A C75A, the self-cleavage worked out at 0.175. G28U A87U: the self-cleavage is 0.116. With C14U G29U, the self-cleavage turned out to be 0.0739. For G17U C33A, the self-cleavage was 0.143. In the case of C3A G25A it was 0.0658.

Turning to G10U C84A, the self-cleavage is 0.519. As to U12C C32A, the self-cleavage was 0.256. For the variant C26U G34U, the self-cleavage worked out at 0.767. For the variant G55C G59C, the self-cleavage amounted to 0.867. In the case of A77G C86A, the self-cleavage is 1.15. G53C A77U: the self-cleavage was 0.639. Take C18A G28C: the self-cleavage is 0.095. In the case of A56C A77C it was 0.482; in that of C24U G52C, 0.884. As to C24U G52U, the self-cleavage turned out to be 0.694. For the variant G17U G31C, the self-cleavage came to 0.0361. Regarding G2C C4G, the self-cleavage came out at 0.794. On to A8G G35U, for which the self-cleavage worked out at 0.306. C24A G81A: the self-cleavage was 0.0852. For the variant G6A C33A, the self-cleavage worked out at 0.0678. As to G29A C33G, the self-cleavage amounted to 0.0346. As for G6A G52A, the self-cleavage stood at 0.831. On to U23A G40U, for which the self-cleavage was found to be 0.769. Consider C62G G73C, for which the self-cleavage was 0.446. Turning to U9C U20G, the self-cleavage stood at 0.443. To G10U C75U belongs 0.0678; to U60A C61G, 1.19. With C7G C86U, the self-cleavage worked out at 0.383.

As to U12A U72C, the self-cleavage worked out at 0.277. In the case of G40U C58A it was 0.67; in that of A45G G50U, 1.16; in that of A43G G59A, 0.811. On to C22A G73C, for which the self-cleavage was determined as 0.0482. On to C7A A77G, for which the self-cleavage was determined as 0.107.

Turning to G10C U72A, the self-cleavage stood at 0.415. A45C G53C: the self-cleavage is 0.755. In the case of G54A G82U, the self-cleavage is 0.205.

U37C A83G: the self-cleavage came out at 0.76. To A77G C85A belongs 0.851; to A78G G81A, 0.115.

Take G11U G80A: the self-cleavage turned out to be 0.136. As for G6U A87C, the self-cleavage is 0.592. With U27C C62A, the self-cleavage worked out at 0.54. For C3U C18G, the self-cleavage was 0.0779.

Regarding G59C G67C, the self-cleavage is 0.929. U60G G67A: the self-cleavage worked out at 0.91. For C36A A83G, the self-cleavage worked out at 0.159.

With U23G C32G, the self-cleavage came out at 0.237. To C24U G68C belongs 0.456. Take C33A A71C: the self-cleavage was 0.248.

Consider C13U C32A, for which the self-cleavage is 0.172. On to C48U G53U, for which the self-cleavage is 0.923.

In the case of C36G C85A, the self-cleavage amounted to 0.251. Turning to G25U C30A, the self-cleavage came to 0.158. For U60G A83C, the self-cleavage was 0.612. G68C A87U: the self-cleavage is 0.799.

For the variant G54U G73A, the self-cleavage came to 0.776. On to U12C U72C, for which the self-cleavage amounted to 0.196. As for G11C G38A, the self-cleavage is 0.0519. To G28U G29U belongs 0.107; to C18U A78G, 0.285; to C4A C75U, 0.102. On to A16U U47G, for which the self-cleavage was found to be 0.692. Regarding G38U A51G, the self-cleavage worked out at 0.32. Regarding U60G U79C, the self-cleavage amounted to 0.203.

With G31A U60G, the self-cleavage was found to be 0.642.

Regarding A42C A87U, the self-cleavage was determined as 0.283. For C58A, the self-cleavage stood at 1.02.

As to G29U U46A, the self-cleavage is 0.0665. In the case of C26A G31A, the self-cleavage stood at 0.818.

For the variant C48A C49A, the self-cleavage was 1.16. With U12A A43U, the self-cleavage is 0.147. Regarding C24G C36A, the self-cleavage is 0. On to U23G A43U, for which the self-cleavage turned out to be 0.219. C36U G54C: the self-cleavage was 0.872. With C24A U47C, the self-cleavage is 0.508. On to C22G G34U, for which the self-cleavage turned out to be 0.0627. As to U9G C48G, the self-cleavage is 0.997. As for C30A G34U, the self-cleavage was 0.155.
